The values below come from article PMC5678078 (2017).

For experiment [1], the target named is T1, recombinant matriptase protease domain with an N-terminal thioredoxin tag (Trx-MTX PD) (human) (UniProt Q9Y5Y6).
T1 sequence: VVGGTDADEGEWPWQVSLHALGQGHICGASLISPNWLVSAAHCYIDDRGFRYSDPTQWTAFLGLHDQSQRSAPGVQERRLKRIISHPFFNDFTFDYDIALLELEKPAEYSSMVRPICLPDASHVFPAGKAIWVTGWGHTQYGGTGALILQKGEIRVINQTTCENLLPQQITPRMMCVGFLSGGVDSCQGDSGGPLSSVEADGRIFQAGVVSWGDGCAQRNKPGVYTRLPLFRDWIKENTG

Experiment [2] concerns the target T2, recombinant matriptase protease domain with an N-terminal thioredoxin tag (Trx-MTX PD) (human, UniProt Q9Y5Y6 615-854).
T2 chain: T1 sequence
The experiment can be described thus: SPR.

Experiment [3] addresses T1, recombinant matriptase protease domain with an N-terminal thioredoxin tag (Trx-MTX PD) (human). The experiment can be described thus: SPR; BIAcore; Trx-MTX PD amine-coupled to a CM5 chip; GST fusion proteins as analytes at 30 µl/min, 120 sec association, 180 sec dissociation; 10 mM HEPES, 150 mM NaCl, pH 7.4; KD by affinity analysis (BIAevaluation), called estimated.

As for “recombinant HAI-2 KD1-deleted mutant (rHAI-2ΔKD1) from the baculovirus expression system (from UniProt O43291 28-197) (domain or fragment)”, the inhibition of the in vitro proteolytic activity of Trx-MTX PD (100 nM) on Boc-Gln-Ala-Arg-AMC by rHAI-2ΔKD1 (500 nM) in experiment [1] came out at 80%.
Consider “recombinant HAI-2 KD2-deleted mutant (rHAI-2ΔKD2) from the baculovirus expression system (from UniProt O43291 28-197) (domain or fragment)”, for which the inhibition of the in vitro proteolytic activity of Trx-MTX PD (100 nM) on Boc-Gln-Ala-Arg-AMC by rHAI-2ΔKD2 (500 nM) in experiment [1] is 99%.

B1: GST fusion protein of HAI-2 Kunitz domain 1 (GST-KD1) (domain or fragment)
chain: CLVSKVVGRCRASMPRWWYNVTDGSCQLFVYGGCDGNSNNYLTKEECLKKC
Take B1: the Kd in experiment [2] was 45.7 nM; in experiment [3], 10 nM.

B2: GST fusion protein of HAI-2 Kunitz domain 2 (GST-KD2) (domain or fragment)
chain: CTANAVTGPCRASFPRWYFDVERNSCNNFIYGGCRGNKNSYRSEEACMLRC
Turning to B2, the Kd in experiment [2] was 35.5 nM; in experiment [3], 10 nM.

B3: recombinant HAI-2 wild type (rHAI-2 WT) from the baculovirus expression system (domain or fragment)
chain: ADRERSIHDFCLVSKVVGRCRASMPRWWYNVTDGSCQLFVYGGCDGNSNNYLTKEECLKKCATVTENATGDLATSRNAADSSVPSAPRRQDSEDHSSDMFNYEEYCTANAVTGPCRASFPRWYFDVERNSCNNFIYGGCRGNKNSYRSEEACMLRCFRQQENPPLPLGSK
B3: the inhibition of the in vitro proteolytic activity of Trx-MTX PD (100 nM) on Boc-Gln-Ala-Arg-AMC by rHAI-2 WT (500 nM) in experiment [1] turned out to be 99%.
